In PMC7409020, “Tumor-Targeting Peptides: The Functional Screen of Glioblastoma Homing Peptides to the Target Protein FABP3 (MDGI)” (Cancers, 2020):
pKd: −log10 of the molar value.

Biological target: A-CooP
Assay: SPR; Biacore T100; A-CooP immobilised on a CM5 chip (FC-4) by amine coupling, scrambled control peptide on the reference flow cell (FC-3); FABP3 as analyte 0.5-32 µM; 25 °C; PBS with 0.05% Tween-20, pH 7.4; steady state affinity fit of reference-subtracted sensorgrams; mean of three experiments

pKd: 4.78
Substance: recombinant N-terminal His6-tagged human FABP3 (natural protein)
